B1: Pituitary-specific positive transcription factor 1, residues 130 to 198; numbered along this chain, P28069 (parent)
chain: RELEKFANEFKVRRIKLGYTQTNVGEALAAVHGSEFSQTTICRFENLQLSFKNACKLKAILSKWLEEAE

Variants of: B1
Experiment: abundance fitness (aPCA) (normalised: wild type 0, dead -1); higher = more abundant; growth selection in yeast, the domain comes from the species named
Details: Homo sapiens

Abundance fitness, by site and new letter:
F10: P -0.931; I -0.963; Y -0.518; S -0.544; G -1.05; T -0.915; V -0.649; M -0.621; A -0.803; Q -0.434; C -0.923; K -0.721; R -0.738; W -0.961; L -0.731; H -0.762; N -0.59
L17: W -0.638; H -0.497; F -0.588; Y -0.858; I -0.709; Q -0.821; C -0.613; R -0.803; V -0.785; T -0.941; N -0.729; A -0.401; G -0.889; S -0.738; M -0.453; K -0.804
R13: E -0.976; D -0.803; L -0.913; G -0.69; A -0.179; K -0.308; T -0.913; S -0.924; N -0.618; F -0.872; V -0.734; P -0.898; W -0.733; Q -0.193
E9: T -0.398; Y -0.72; Q -0.188; R -0.645; F -0.239; D 0.031; P -0.917; S -0.213; M -0.11; C -0.714; W -0.057; L -0.246; K -0.323; V -0.65; A -0.156
K11: V -0.694; M -0.546; I -0.458; Q -0.507; W -0.911; S -0.65; E -0.786; L -0.973; R -0.021; G -0.6; F -1.02; D -1.02; C -0.795
Q21: A -0.16; I -0.246; S -0.506; H -0.164; D -0.674; Y -0.325; V -0.278; R -0.288; T -0.028; G -1.07; N -0.766; L -0.138; W -0.592; E -0.549; K -0.702; F -0.932; P -0.275; M -0.394
V12: H 0.095; D -0.175; F -0.318; M -0.045; E 0.275; W -0.56; Y -0.295; Q 0.16; S 0.089; R -0.101; K -0.071; I -0.002; P -0.772; C -0.183; A 0.173; L -0.16
R14: V -0.712; Q -0.74; T -0.878; G -0.8; C -0.79; Y -0.745; L -0.72; E -0.952; D -0.725; P -0.781; N -0.897; M -0.645; H -0.253; S -0.995
T22: L -0.156; Y -0.392; N -0.063; I -0.525; E 0.491; C -0.108; K 0.267; H 0.041; P -0.573; G -0.052; M 0.08; Q 0.209; A 0.357; W 0.18; V -0.328; S 0.106
V24: L -0.361; Y -0.767; S -0.681; C -0.337; R -0.931; I -0.545; T -0.625; G -0.753; N -0.581; F -0.92; K -0.846; M -0.851; A -0.728
I15: Q 0.042; R -0.083; E -0.014; G -0.404; H -0.393; C -0.327; M 0.014; S -0.272; T -0.13; N -0.546; D -0.89; K -0.054; Y -0.761; L -0.196; A -0.173; V -0.219; P -1.03
A7: C -0.21; S -0.425; L -0.975; T -0.356; Q -0.944; G -0.885; I 0.162; E -0.235; M -0.551; H -0.973; R -0.7; D -0.783
G25: I -0.184; C 0.005; M -0.468; F -0.285; A 0.396; D -0.647; K -0.797; L -0.692
T20: L -0.683; S -0.044; P -0.942; N -0.384; G -0.662; I -0.951; C -0.871; V -0.789; R -0.941; W -1.12; H -1.05; Q -0.911; Y -1.17; E -0.536
K16: H -0.786; D -0.665; N -0.122; F -0.909; G -0.559; M -0.365; R -0.027; V -0.812; A -0.08; T -0.809; Y -0.64; L -0.468; C -0.121; S -0.365
E4: D -0.612; F -0.316; A 0.043; K -0.084; T -0.249; C -0.552; M -0.451; Q -0.245; S -0.157; R -0.229; Y -0.604; L -0.579; I -0.145; P -0.898; G -0.848; V -0.072
L3: W -0.715; T -0.867; V -0.468; R -0.751; M -0.469; Y -0.22; S -0.855
G18: H -0.742; Y -0.825; V -0.912; W -0.83; R -0.84; L -0.62; S -0.838; C -0.688; I -0.665; P -0.608; N -0.969; F -0.681; D -0.556
K5: D 0.048; E -0.062; I -0.079; Q -0.172; N -0.079; S -0.278; W -0.596; A -0.015; C -0.647; T -0.21; L -0.227; H -0.135; Y -0.236; G -0.478; F -0.46; P -1.07; R -0.117; V -0.278
Y19: C -0.562; H -0.376; K -0.674; D -0.696; E -0.934; G -0.501; A -0.421; R -0.718; W -0.283; V -0.855; I -0.382; S -0.696; Q -0.149; F -0.501
N8: G -0.336; T -0.04; R 0.188; F -0.262; Q 0.12; W -0.414; K 0.155; I 0.024; L 0.093; C -0.496; Y -0.094; E -0.168; D -0.532; V -0.224; S 0.034; A 0.133; M -0.027; P -0.783
F6: R -0.844; G -0.688; Y -0.837; N -0.88; A -0.666; V -0.941; K -0.756; P -0.835; M -0.753; Q -0.916; S -0.997; D -1.06; W -0.333; E -0.791; T -0.992; C -0.992; H -0.726
N23: V -0.27; E 0.352; C -0.184; A 0.267; L -0.478; P -0.992; I -0.539; F 0.145; H 0; Q 0.347; Y 0.008; S 0.086; M 0.392; R -0.053

— the Human Domainome abundance scans (Beltran et al. 2025)
